The values below come from paper PMC6738654, “BZU2/ZmMUTE controls symmetrical division of guard mother cell and specifies neighbor cell fate in maize”.

In the data set the target is T1, BZU2/ZmMUTE-ΔC (Zea mays, UniProt K7V1X7 1-189).
T1 sequence: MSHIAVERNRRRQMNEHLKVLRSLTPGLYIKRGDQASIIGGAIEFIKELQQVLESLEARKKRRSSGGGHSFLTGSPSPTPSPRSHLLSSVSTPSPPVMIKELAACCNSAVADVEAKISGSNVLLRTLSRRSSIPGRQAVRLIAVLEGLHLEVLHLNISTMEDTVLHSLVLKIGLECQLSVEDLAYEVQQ
The experiment in a line: EMSA; cold probe competitor 2-, 5-, 10-fold; LightShift Chemiluminescent EMSA Kit (Thermo) per manufacturer; buffer, salt, pH and temperature not stated. Conditions: protein: recombinant; chain copies: 2; label: 5' biotin (cold probe unlabeled); blunt. (In EMSA bound probe runs differently from free probe, usually more slowly.)

B1: P2 (PAN2 promoter E-boxes -187, -200) (dsDNA)
DNA 1: CAGCCACAACAGGTGTCCCTTTCAAGTGATCTCTGCA
DNA 2: TGCAGAGATCACTTGAAAGGGACACCTGTTGTGGCTG
With B1, the binding result is “binds”.

B2: P1 (PAN1 promoter E-box -27) (dsDNA)
DNA 1: GAATGAGGGGCACCTGGAGAGCACAT
DNA 2: ATGTGCTCTCCAGGTGCCCCTCATTC
For B2, the binding result is “binds”.
